Experimental data reported in the RNAGym collection of RNA variant scans (doi:10.7554/elife.90254).

B1: LINE1-full (parent)
chain: UACGUAGGUGGUUUUCCCCUGAUAGUGCUAAGGGGGCCUGGAAGUUUGGACUGGGCAGAGCUCAACACAGCGUGGCAAAGUGGCUGUGGCUAGACUGCCUCUCUGGAUUCCUCGUCACUCAGCAGGGCAUCUCUGAGAGAAAUGCC

Variants of: B1
Experiment: self-cleavage, relative activity (ratio to wild type); higher = more cleavage; in vitro, sequencing; the parent is a self-cleaving ribozyme

Row | Variant | self-cleavage
1 | UACGUAGGUGGUUUUCCCCUGAUAGUGCUAAGGGGGCCUGGAAGUUUGGACUGGGCAGAGCUCAACACAGCGUGGCUAAGUGGCUGUGGCUAGACUGCCUCUCUGGAUUCCUCGUCACUCAGCAGGACAUCUCUGAGAGAAAUGCC [A77U G127A] | 1.48
2 | UACGUAGGUGGUUUUCCCCUGAUAGUGCUAAGGGGGCCUGGAAGUUUGGACUGGGCAGAGCUCAACACAGCGUGGCACAGUGGCUGUGGCUAGACUGCCUCUCUGGAUUCCUCGUCACUCAGCAGGGCAUCUCUGAGGGAAAUGCC [A78C A138G] | 1.84
3 | UACGUAGGUGGUUUUCCCCUGAUAGUGCUAAGGGGGCCUGGAAGUUUGGACUGGGCAGAGCUCAACACAGCGUGGCACAGUGGCUGUGGCUAGACUGCCUCUCUGGAUUCCUCGUCACUCAACAGGGCAUCUCUGAGAGAAAUGCC [A78C G122A] | 1.41
4 | UACGUAGGUGGUUUUCCCCUGAUAGUGCUAAGGGGGCCUGGAAGUUUGGACUGGGCAGAGCUCAACACAGCGUGGCUAAGUGGCUGUGGCUAGACUGCCUCUCUGGAUUCCUCGUCACUCAACAGGGCAUCUCUGAGAGAAAUGCC [A77U G122A] | 0.36
5 | UACGUAGGUGGUUUUCCCCUGAUAGUGCUAAGGGGGCCUGGAAGUUUGGACUGGGCAGAGCUCAACACAGCGUGGCUAAGUGGCUGUGGCCAGACUGCCUCUCUGGAUUCCUCGUCACUCAGCAGGGCAUCUCUGAGAGAAAUGCC [A77U U91C] | 0.6
6 | UACGUAGGUGGUUUUCCCCUGAUAGUGCUAAGGGGGCCUGGAAGUUUGGACUGGGCAGAGCUCAACACAGCGUGGCUAAGUGGCUGUGGCUAGACUGCCUCUCUGAAUUCCUCGUCACUCAGCAGGGCAUCUCUGAGAGAAAUGCC [A77U G106A] | 1.31
7 | UACGUAGGUGGUUUUCCCCUGAUAGUGCUAAGGGGGCCUGGAAGUUUGGACUGGGCAGAGCUCAACACAGCGUGGCACAGUGGCUGUGGCUAGACCGCCUCUCUGGAUUCCUCGUCACUCAGCAGGGCAUCUCUGAGAGAAAUGCC [A78C U96C] | 0.29
8 | UACGUAGGUGGUUUUCCCCUGAUAGUGCUAAGGGGGCCUGGAAGUUUGGACUGGGCAGAGCUCAACACAGCGUGGCACAGUGGCUGUGGCUAGACUGCCUCUCUGGACUCCUCGUCACUCAGCAGGGCAUCUCUGAGAGAAAUGCC [A78C U108C] | 2.16
9 | UACGUAGGUGGUUUUCCCCUGAUAGUGCUAAGGGGGCCUGGAAGUUUGGACUGGGCAGAGCUCAACACAGCGUGGCUAAGUGGCUGUGGCUAGACUGCCUCCCUGGAUUCCUCGUCACUCAGCAGGGCAUCUCUGAGAGAAAUGCC [A77U U102C] | 1.24
10 | UACGUAGGUGGUUUUCCCCUGAUAGUGCUAAGGGGGCCUGGAAGUUUGGACUGGGCAGAGCUCAACACAGCGUGGCUAAGUGGCUGUGGCUAGACUGCCUCUCCGGAUUCCUCGUCACUCAGCAGGGCAUCUCUGAGAGAAAUGCC [A77U U104C] | 1.74
11 | UACGUAGGUGGUUUUCCCCUGAUAGUGCUAAGGGGGCCUGGAAGUUUGGACUGGGCAGAGCUCAACACAGCGUGGCUAAGUGGCUGUGGCUAGACUGCCUCUCUGGAUUCCUCGUCACUCAGCAGGGCAUCUCUGAGAGAAACGCC [A77U U143C] | 1.04
12 | UACGUAGGUGGUUUUCCCCUGAUAGUGCUAAGGGGGCCUGGAAGUUUGGACUGGGCAGAGCUCAACACAGCGUGGCUAAGUGGCUGUGGCUAGACUGCCUCUCUGGAUUCCUCGUCACUCAGCAGGGCAUCUCUGAGAGAAAGGCC [A77U U143G] | 1.48
13 | UACGUAGGUGGUUUUCCCCUGAUAGUGCUAAGGGGGCCUGGAAGUUUGGACUGGGCAGAGCUCAACACAGCGUGGCUAAGUGGCUGUGGCUAGACUGCCUCUCUGGAUUCCUCGUCACUCAGCAGGGCAGCUCUGAGAGAAAUGCC [A77U U130G] | 1.86
14 | UACGUAGGUGGUUUUCCCCUGAUAGUGCUAAGGGGGCCUGGAAGUUUGGACUGGGCAGAGCUCAACACAGCGUGGCUAAGUGGCUGUGGCUAGACUGCCUCUCUGGAUUCCUCGUCACUCAGCAGGGCAUUUCUGAGAGAAAUGCC [A77U C131U] | 1.19
15 | UACGUAGGUGGUUUUCCCCUGAUAGUGCUAAGGGGGCCUGGAAGUUUGGACUGGGCAGAGCUCAACACAGCGUGGCUAAGUGGCCGUGGCUAGACUGCCUCUCUGGAUUCCUCGUCACUCAGCAGGGCAUCUCUGAGAGAAAUGCC [A77U U85C] | 0.09
16 | UACGUAGGUGGUUUUCCCCUGAUAGUGCUAAGGGGGCCUGGAAGUUUGGACUGGGCAGAGCUCAACACAGCGUGGCUAAGUGGCUGUGGCUAGACUGCCUCUCUGGAUCCCUCGUCACUCAGCAGGGCAUCUCUGAGAGAAAUGCC [A77U U109C] | 0.98
17 | UACGUAGGUGGUUUUCCCCUGAUAGUGCUAAGGGGGCCUGGAAGUUUGGACUGGGCAGAGCUCAACACAGCGUGGCUAAGUGGCUGUGGCUAGACUGCCUCUCUGGAUUCCUCGUCACUCAGCAGGGCAUCCCUGAGAGAAAUGCC [A77U U132C] | 1.41
18 | UACGUAGGUGGUUUUCCCCUGAUAGUGCUAAGGGGGCCUGGAAGUUUGGACUGGGCAGAGCUCAACACAGCGUGGCUAAGUGGCUGUGGCUAGACUGCCUCUCUGGAUUCCUCGUCACUCAGCAGGGCAUCGCUGAGAGAAAUGCC [A77U U132G] | 1.74
19 | UACGUAGGUGGUUUUCCCCUGAUAGUGCUAAGGGGGCCUGGAAGUUUGGACUGGGCAGAGCUCAACACAGCGUGGCACAGUGGCUGUGGCUAGACUGCCUCUCUGGAUUCCUCGUCGCUCAGCAGGGCAUCUCUGAGAGAAAUGCC [A78C A117G] | 2.21
20 | UACGUAGGUGGUUUUCCCCUGAUAGUGCUAAGGGGGCCUGGAAGUUUGGACUGGGCAGAGCUCAACACAGCGUGGCUAAGUGGCUGUGGCUAGACUGCCUCUCUGGAUUCCUCGUCACUCAGUAGGGCAUCUCUGAGAGAAAUGCC [A77U C123U] | 0.84

Row | Variant | self-cleavage
21 | UACGUAGGUGGUUUUCCCCUGAUAGUGCUAAGGGGGCCUGGAAGUUUGGACUGGGCAGAGCUCAACACAGCGUGGCUAAGUGGCUGUGGCUAGACUGCCUCUCUGGAUUCCUCGUCACACAGCAGGGCAUCUCUGAGAGAAAUGCC [A77U U119A] | 1.51
22 | UACGUAGGUGGUUUUCCCCUGAUAGUGCUAAGGGGGCCUGGAAGUUUGGACUGGGCAGAGCUCAACACAGCGUGGCUAAGUGGCUGUGGCUAGACUGCCUCUCUGGAUUCCUCGUCACUCAGCAAGGCAUCUCUGAGAGAAAUGCC [A77U G125A] | 1.33
23 | UACGUAGGUGGUUUUCCCCUGAUAGUGCUAAGGGGGCCUGGAAGUUUGGACUGGGCAGAGCUCAACACAGCGUGGCUAAGUGGCUGUGGCUAGACUGCCUCUCUGGAUUCCUCGUCACUCAGCAUGGCAUCUCUGAGAGAAAUGCC [A77U G125U] | 1.5
24 | UACGUAGGUGGUUUUCCCCUGAUAGUGCUAAGGGGGCCUGGAAGUUUGGACUGGGCAGAGCUCAACACAGCGUGGCUAAGUGGCUGUGGCUAGACUGCCUCUCUGGAGUCCUCGUCACUCAGCAGGGCAUCUCUGAGAGAAAUGCC [A77U U108G] | 1.37
25 | UACGUAGGUGGUUUUCCCCUGAUAGUGCUAAGGGGGCCUGGAAGUUUGGACUGGGCAGAGCUCAACACAGCGUGGCUAAGAGGCUGUGGCUAGACUGCCUCUCUGGAUUCCUCGUCACUCAGCAGGGCAUCUCUGAGAGAAAUGCC [A77U U81A] | 1.89
26 | UACGUAGGUGGUUUUCCCCUGAUAGUGCUAAGGGGGCCUGGAAGUUUGGACUGGGCAGAGCUCAACACAGCGUGGCACAGUGGCUGUGGCUAGACUGCCUCCCUGGAUUCCUCGUCACUCAGCAGGGCAUCUCUGAGAGAAAUGCC [A78C U102C] | 2.53
27 | UACGUAGGUGGUUUUCCCCUGAUAGUGCUAAGGGGGCCUGGAAGUUUGGACUGGGCAGAGCUCAACACAGCGUGGCUAAGUGGCUGUGGCUAGACUGCCUCUCUGGAUUCCUCGUCACUCAGCAGGGCAUCUCAGAGAGAAAUGCC [A77U U134A] | 0.57
28 | UACGUAGGUGGUUUUCCCCUGAUAGUGCUAAGGGGGCCUGGAAGUUUGGACUGGGCAGAGCUCAACACAGCGUGGCUAAGUGGCUGUGGCUAGACGGCCUCUCUGGAUUCCUCGUCACUCAGCAGGGCAUCUCUGAGAGAAAUGCC [A77U U96G] | 0.27
29 | UACGUAGGUGGUUUUCCCCUGAUAGUGCUAAGGGGGCCUGGAAGUUUGGACUGGGCAGAGCUCAACACAGCGUGGCUAAGUGGCUGUGGCUAGACCGCCUCUCUGGAUUCCUCGUCACUCAGCAGGGCAUCUCUGAGAGAAAUGCC [A77U U96C] | 0.1
30 | UACGUAGGUGGUUUUCCCCUGAUAGUGCUAAGGGGGCCUGGAAGUUUGGACUGGGCAGAGCUCAACACAGCGUGGCUAAGUGGCUGUGGCUAUACUGCCUCUCUGGAUUCCUCGUCACUCAGCAGGGCAUCUCUGAGAGAAAUGCC [A77U G93U] | 0.04
31 | UACGUAGGUGGUUUUCCCCUGAUAGUGCUAAGGGGGCCUGGAAGUUUGGACUGGGCAGAGCUCAACACAGCGUGGCUAAGUGGCUGUGGCUACACUGCCUCUCUGGAUUCCUCGUCACUCAGCAGGGCAUCUCUGAGAGAAAUGCC [A77U G93C] | 0.03
32 | UACGUAGGUGGUUUUCCCCUGAUAGUGCUAAGGGGGCCUGGAAGUUUGGACUGGGCAGAGCUCAACACAGCGUGGCUAAGUGGCUGUGGCUAGACUGCCUCUCUGGAUUCCUCGCCACUCAGCAGGGCAUCUCUGAGAGAAAUGCC [A77U U115C] | 1.22
33 | UACGUAGGUGGUUUUCCCCUGAUAGUGCUAAGGGGGCCUGGAAGUUUGGACUGGGCAGAGCUCAACACAGCGUGGCACAGUGGCUGUGGCUAGACUGCCUCUCUGGAUUCCUCGUCACUCGGCAGGGCAUCUCUGAGAGAAAUGCC [A78C A121G] | 2.59
34 | UACGUAGGUGGUUUUCCCCUGAUAGUGCUAAGGGGGCCUGGAAGUUUGGACUGGGCAGAGCUCAACACAGCGUGGCUAAGUGGCUGUGGCUAGACUGCCUCUCUGGAUUCCACGUCACUCAGCAGGGCAUCUCUGAGAGAAAUGCC [A77U U112A] | 1.1
35 | UACGUAGGUGGUUUUCCCCUGAUAGUGCUAAGGGGGCCUGGAAGUUUGGACUGGGCAGAGCUCAACACAGCGUGGCUAAGUGGCUGAGGCUAGACUGCCUCUCUGGAUUCCUCGUCACUCAGCAGGGCAUCUCUGAGAGAAAUGCC [A77U U87A] | 0.05
36 | UACGUAGGUGGUUUUCCCCUGAUAGUGCUAAGGGGGCCUGGAAGUUUGGACUGGGCAGAGCUCAACACAGCGUGGCUAAGUGGCUGCGGCUAGACUGCCUCUCUGGAUUCCUCGUCACUCAGCAGGGCAUCUCUGAGAGAAAUGCC [A77U U87C] | 0.09
37 | UACGUAGGUGGUUUUCCCCUGAUAGUGCUAAGGGGGCCUGGAAGUUUGGACUGGGCAGAGCUCAACACAGCGUGGCUAAGUGGCUGUGACUAGACUGCCUCUCUGGAUUCCUCGUCACUCAGCAGGGCAUCUCUGAGAGAAAUGCC [A77U G89A] | 0.06
38 | UACGUAGGUGGUUUUCCCCUGAUAGUGCUAAGGGGGCCUGGAAGUUUGGACUGGGCAGAGCUCAACACAGCGUGGCACAGUGGCUGUGGCUAGACUGCCUCUCUGGAUCCCUCGUCACUCAGCAGGGCAUCUCUGAGAGAAAUGCC [A78C U109C] | 2.32
39 | UACGUAGGUGGUUUUCCCCUGAUAGUGCUAAGGGGGCCUGGAAGUUUGGACUGGGCAGAGCUCAACACAGCGUGGCUAAGUGGCUGUGGCUAGACUGCCUCUCUGGAUUCCUCGUCACUCAGCAGGGCAUCUCUGAGAGAAAUGAC [A77U C145A] | 1.75
